This passage reports abundance fitness results from the Human Domainome abundance scans (Beltran et al. 2025).

± gives the uncertainty stated by the source.

Sequences and labels used below:
B1: Ankyrin-3, residues 4094 to 4171; numbered along this chain, Q12955 (parent)
chain: MAIVADHLGLSWTELARELNFSVDEINQIRVENPNSLISQSFMLLKKWVTRDGKNATTDALTSVLTKINRIDIVTLLE

Variants of B1 are the subject of this series. The experiment in a line: abundance fitness (aPCA) (normalised: wild type 0, dead -1); higher = more abundant; growth selection in yeast, the domain comes from the species named. The note with it: Homo sapiens.
Turning to MAIVADHLGLSWTELARELNFSVDEINQIRVENPNSLISQSFMLLKKWVTRDGKNAQTDALTSVLTKINRIDIVTLLE [T57Q], the abundance fitness is -0.298 ± 0.11. The result for MAIVADHLGLSWTELARELNFSVDEINQIRVENPNSLISQSFMLLKKWVTRDGKNAFTDALTSVLTKINRIDIVTLLE [T57F] reads -0.39 ± 0.13; that for MAIVADHLGLSWTELARELNFSVDEINQIRVENPNSLISQSFMLLKKWVTRDGKNAHTDALTSVLTKINRIDIVTLLE [T57H], -0.176 ± 0.1; that for MAIVADHLGLSWTELARELNFSVDEINQIRVENPNSLISQSFMLLKKWVTRDGKEATTDALTSVLTKINRIDIVTLLE [N55E], -0.079 ± 0.093. For MAIVADHLGLSWTELARELNFSVDEINQIRVENPNSLISQSFMLLKKWVTRDGKLATTDALTSVLTKINRIDIVTLLE [N55L], the abundance fitness is -0.004 ± 0.042.

Take MAIVADHLGLSWTELARELNFSVDEINQIRVENPNSLISQSFMLLKKWVTRDGKAATTDALTSVLTKINRIDIVTLLE [N55A]: the abundance fitness was found to be 0.007 ± 0.06. The result for MAIVADHLGLSWTELARELNFSVDEINQIRVENPNSLISQSFMLLKKWVTRDGKRATTDALTSVLTKINRIDIVTLLE [N55R] reads -0.073 ± 0.042; that for MAIVADHLGLSWTELARELNFSVDEINQIRVENPNSLISQSFMLLKKWVTRDGKMATTDALTSVLTKINRIDIVTLLE [N55M], -0.047 ± 0.075; that for MAIVADHLGLSWTELARELNFSVDEINQIRVENPNSLISQSFMLLKKWVTRDGKSATTDALTSVLTKINRIDIVTLLE [N55S], -0.021 ± 0.052. The result for MAIVADHLGLSWTELARELNFSVDEINQIRVENPNSLISQSFMLLKKWVTRDGKFATTDALTSVLTKINRIDIVTLLE [N55F] reads -0.15 ± 0.1; that for MAIVADHLGLSWTELARELNFSVDEINQIRVENPNSLISQSFMLLKKWVTRDGKTATTDALTSVLTKINRIDIVTLLE [N55T], -0.115 ± 0.087; that for MAIVADHLGLSWTELARELNFSVDEINQIRVENPNSLISQSFMLLKKWVTRDGKPATTDALTSVLTKINRIDIVTLLE [N55P], -0.603 ± 0.094. In the case of MAIVADHLGLSWTELARELNFSVDEINQIRVENPNSLISQSFMLLKKWVTRDGKWATTDALTSVLTKINRIDIVTLLE [N55W], the abundance fitness is -0.135 ± 0.065. With MAIVADHLGLSWTELARELNFSVDEINQIRVENPNSLISQSFMLLKKWVTRDGKVATTDALTSVLTKINRIDIVTLLE [N55V], the abundance fitness was -0.114 ± 0.062. The result for MAIVADHLGLSWTELARELNFSVDEINQIRVENPNSLISQSFMLLKKWVTRDGKHATTDALTSVLTKINRIDIVTLLE [N55H] reads -0.058 ± 0.094; that for MAIVADHLGLSWTELARELNFSVDEINQIRVENPNSLISQSFMLLKKWVTRDGKDATTDALTSVLTKINRIDIVTLLE [N55D], 0.066 ± 0.11; that for MAIVADHLGLSWTELARELNFSVDEINQIRVENPNSLISQSFMLLKKWVTRDGKQATTDALTSVLTKINRIDIVTLLE [N55Q], 0.011 ± 0.051. The result for MAIVADHLGLSWTELARELNFSVDEINQIRVENPNSLISQSFMLLKKWVTRDGKGATTDALTSVLTKINRIDIVTLLE [N55G] reads 0.057 ± 0.038. The result for MAIVADHLGLSWTELARELNFSVDEINQIRVENPNSLISQSFMLLKKWVTRDGKCATTDALTSVLTKINRIDIVTLLE [N55C] reads -0.157 ± 0.13; that for MAIVADHLGLSWTELARELNFSVDEINQIRVENPNSLISQSFMLLKKWVTRDGKYATTDALTSVLTKINRIDIVTLLE [N55Y], -0.041 ± 0.15; that for MAIVADHLGLSWTELARELNFSVDEINQIRVENPNSLISQSFMLLKKWVTRDGKNNTTDALTSVLTKINRIDIVTLLE [A56N], -0.53 ± 0.29.

In the case of MAIVADHLGLSWTELARELNFSVDEINQIRVENPNSLISQSFMLLKKWVTRDGKNRTTDALTSVLTKINRIDIVTLLE [A56R], the abundance fitness was -0.506 ± 0.059. For MAIVADHLGLSWTELARELNFSVDEINQIRVENPNSLISQSFMLLKKWVTRDGKNSTTDALTSVLTKINRIDIVTLLE [A56S], the abundance fitness was -0.517 ± 0.082. The result for MAIVADHLGLSWTELARELNFSVDEINQIRVENPNSLISQSFMLLKKWVTRDGKNKTTDALTSVLTKINRIDIVTLLE [A56K] reads -0.175 ± 0.21; that for MAIVADHLGLSWTELARELNFSVDEINQIRVENPNSLISQSFMLLKKWVTRDGKNTTTDALTSVLTKINRIDIVTLLE [A56T], -0.517 ± 0.11; that for MAIVADHLGLSWTELARELNFSVDEINQIRVENPNSLISQSFMLLKKWVTRDGKNLTTDALTSVLTKINRIDIVTLLE [A56L], -0.433 ± 0.075. With MAIVADHLGLSWTELARELNFSVDEINQIRVENPNSLISQSFMLLKKWVTRDGKNCTTDALTSVLTKINRIDIVTLLE [A56C], the abundance fitness is -0.271 ± 0.11. The result for MAIVADHLGLSWTELARELNFSVDEINQIRVENPNSLISQSFMLLKKWVTRDGKNHTTDALTSVLTKINRIDIVTLLE [A56H] reads -0.296 ± 0.18. The result for MAIVADHLGLSWTELARELNFSVDEINQIRVENPNSLISQSFMLLKKWVTRDGKNFTTDALTSVLTKINRIDIVTLLE [A56F] reads -0.304 ± 0.19; that for MAIVADHLGLSWTELARELNFSVDEINQIRVENPNSLISQSFMLLKKWVTRDGKNITTDALTSVLTKINRIDIVTLLE [A56I], -0.298 ± 0.16. The result for MAIVADHLGLSWTELARELNFSVDEINQIRVENPNSLISQSFMLLKKWVTRDGKNWTTDALTSVLTKINRIDIVTLLE [A56W] reads -0.458 ± 0.072. With MAIVADHLGLSWTELARELNFSVDEINQIRVENPNSLISQSFMLLKKWVTRDGKNGTTDALTSVLTKINRIDIVTLLE [A56G], the abundance fitness is -0.613 ± 0.072.

Turning to MAIVADHLGLSWTELARELNFSVDEINQIRVENPNSLISQSFMLLKKWVTRDGKNMTTDALTSVLTKINRIDIVTLLE [A56M], the abundance fitness was -0.526 ± 0.12. Consider MAIVADHLGLSWTELARELNFSVDEINQIRVENPNSLISQSFMLLKKWVTRDGKNYTTDALTSVLTKINRIDIVTLLE [A56Y], for which the abundance fitness is -0.353 ± 0.31. The result for MAIVADHLGLSWTELARELNFSVDEINQIRVENPNSLISQSFMLLKKWVTRDGKNVTTDALTSVLTKINRIDIVTLLE [A56V] reads -0.037 ± 0.049.
